Earlier results in patent publication US8679781B2, “In vitro peptide expression library” (Isogenica Limited, priority 2002, dated 2014).

Molecular target: double stranded DNA oestrogen receptor target HRE nucleotide sequence
Settings: fragment expressed in E. coli; similar to the parent molecule; read-out: affinity

B1: oestrogen receptor DNA binding domain fragment (amino acids 176-282): oestrogen receptor DNA binding domain fragment (amino acids 176-282) expressed in E. coli (protein, UniProt P03372 176-282, looked up, fragment)
chain: MESAKETRYCAVCNDYASGYHYGVWSCEGCKAFFKRSIQGHNDYMCPATNQCTIDKNRRKSCQACRLRKCYEVGMMKGGIRKDRRGGRMLKHKRQRDDGEGRGEVGS
Kd: 0.5 nM
